Test: label from the status in PepcDB records

Question: With “MSGSLARAAARPNAPTLVDEATVDDFIAHSGKIVVLFFRGDAVRFPEAADLAVVLPELINAFPGRLVAAEVAAEAERGLMARFGVAVCPSLAVVQPERTLGVIAKIQDWSSYLAQIGAMLAEVDQPGEAELQS” as the sequence, how does the protein production read?
Answer: not failed

Question: For “MSGSSHYPVANWNLDGIVSGLRGARQEWRGPRGRLREESESGVREFPSQESLRDIMRQLFGALFPMRLGPIDLREEVEDFYVGHTIGAALDALLHQVCLELQHLGRDDPQPYGQVLERAVDIVRRFGAELPAVRKALDLDVTAAYQGDPAARSVDEVLLCYPGVTAMIHHRLANVLYRLGAPMLARIVAEIAHSDTGIDIHPGATIGRSFFIDHGTGVVIGETAIIGERVRLYQMVTLGAKRFPPGENGELKKGLPRHPIIEDDVVIYAGATILGRITIGQGSTIGGNVWLTHSVPPNSTVTQAGAINDMPDCGLGGLEHHHHHH”, which protein production is on record?
Answer: failed

Question: With “MSGTKLEDSPPCRNWSSASELNETQEPFLNPTDYDDEEFLRYLWREYLHPKEYEWVLIAGYIIVFVVALIGNVLVCVAVWKNHHMRTVTNYFIVNLSLADVLVTITCLPATLVVDITETWFFGQSLCKVIPYLQTVSVSVSVLTLSCIALDRWYAICHPLMFKSTAKRARNSIVIIWIVSCIIMIPQAIVMECSTVFPGLANKTTLFTVCDERWGGEIYPKMYHICFFLVTYMAPLCLMVLAYLQIFRKLWCRQIPGTSSVVQRKWKPLQPVSQPRGPGQPTKSRMSAVAAEIKQIRARRKTARMLMVVLLVFAICYLPISILNVLKRVFGMFAHTEDRETVYAWFTFSHWLVYANSAANPIIYNFLSGKFREEFKAAFSCCCLGVHHRQEDRLTRGRTSTESRKSLTTQISNFDNISKLSEQVVLTSISTLPAANGAGPLQNW” as the sequence, how does the protein production read?
Answer: failed

Question: For “MSGTLFTYRRKVDFGDCDSARIYFTPRAVDYAVEAVEAWFGDVLGVSWADLFLRHDLDVTFVRMGCEYFRPVIADQTVHVRVRATAVDRSSVTFSAAGEDDSGGVFFRATLVAQFRAGRNRAPVPIPPRYRERMEDCLEQADGKSGTVAQRVGGEPFLSRLQSDGVHFTVRRRVVYGDCTLSGTVYAPRLFNYAVEAVGEWYRETLGISWREQCIRLRGAPFREVWCERLAPLVPGQVITMTVGIPRLGKSSIGYEVVGYDDRGEPCFQVGMSACYISEETGSIKAIPFPDDMRSRILAYQVLCDQGVIPATAS”, which protein production is on record?
Answer: failed

Question: Which protein production does the source give for “MSHAKGFKKDYYGGTLMALVGLAAVMAGLQYHTGSLSHMGPGFFPVAVGALLAFVGVLIAVSARNDEPKEDKPSGHGHSHAAPDLRGTVCIVLGTLAFLLFGKYGGMIPATFAIVFISALGDRSNSIKQAFLLSIAMCVIAAVVFSWALQLQLPMFTWGA” here?
Answer: failed

Question: With “MSHAVANKTETEAAPNSSLKQSAAPQPANSHDAKLLNGTLARTNGLTHAASVATSSSGSYGSSSAAGSNAGSGGPTSSASLSIAAGVASSTALPLPPSSNGLQMPYERFRADDTSYVPIAQFYAGRSVFITGGTGFMGKVLVEKLLRSCPEIRNIYLLIRPKRGQEVSARLTELLNAPLFESLRQEKPKELSKVIPISGDITSEELGISEKDQNLLCRNVSVVFHSAATVKFDEKLKLSVTINMLGTKRLVELCHRMLSLDALIHVSTAYCNCDRTDVSEVIYAPPYNPDDIISLINWLPEDILDQLTPRLIGKRPNTYTFTKALAEHMLLKEAGNLPVAIVRPSIVTASLNEPFAGWVDNFNGPTGLVSALAKGMFRTMMCEKNYVADMVPVDIVINLMIAAAWRTATRKSNNLLIYNCCTGQRNPIIWSEFVKHAMTSVRKHPLEGCLWYPTGDLRMNRPMNTLNCIAKHFLPAYILDGVARIMGKKPFVVNVQNKIAKAVECLEYFATRQWRFKDDNVHALLHTLSPKDREIFVFDVRHINWDKYVERYVLGFREFLFKQRPESLPASRKRMLRLYYLHQLTKLVAVLLTWRFLMSRSKRLNDLWSSFLENALRMARLIPFL” as the sequence, how does the protein production read?
Answer: failed

Question: With “MSHAVVSWTLWSLALYLTLPYLSSAIEHSINNPLFVGPFYIISSGIGSLSLLALERHVKLLSTIGLALSGIGLLMIGVDANQLLTIIGFIFYNLYWLSVPIFYYLLSEEEGSLTKAWSISMVPAIIMPVIAGILIRWGEIIIFILGGLLQLTSSIILILVKHRIDEDHMVGYDVGIPKNVIFVVLPLSIVMPFLYLDVRESLIWVIYSSGQILGILMSWFLWKSKNAIMLSLIIFSGIIFSVFSPIGILFYGSSEALVALGIEKSRPSLMKHAIKVALTEALVWTVGYAVGSLLYYISGFLPFIYSSLVSLILAMIIGLFSSLTFNSVISKNPLKNTIPFKIVRYLTLREGIFPYFKIS” as the sequence, how does the protein production read?
Answer: failed

Question: With “MSHEVDELFDAEMLQQAKTLSAFMSVNSERLPEAGVIIESIGAHNYEDKLSYRIENTEELLLMQTEGAPDASAFEFIPGFSVKRVKDELWHAFGLENATGQRILMLQEDGFRSELRMDLTVDTVIPILLILPFMLWLGWWTINRNFSSFNRLAGELRRKRADDYTNFVEDNDREEVALVKRSLNHYINRIEQTFLREKRFSADAAHELRTPLASLKAQIQSRLGSATSEQQNELQPLLDSTERLVKLVESLLQLSKAELPPEQLKQVNVASVLRQVLADQYVAAESKGLSYHAQLPTVFQQTSDESYLYLLFANALDNAIKYAVPGSHIGIEVTENQIFVCNRVAADHVIDIDRITERFYRGKQLDVEGSGLGLSIVRNLAEQLGVQINFRHIDDEFCFIVTFDTDQ” as the sequence, how does the protein production read?
Answer: failed

Question: For “MSHFVHPNALCESDTIGEGTRVWAFAHVLPGARLGRDCNICDGVFIESDVVVGDRVTVKCGVQLWDGVRLGDDVFVGPNATFTNDLFPRSRVYPEKFLGTVVESGASIGANATILAGTTIGSGAMIGAGAVVTRSVPPNAIVVGNPARIVGYVSDKDATGSAPSPTGQGITDTAVPGVKLYRMPSFADMRGSLSVGDFETFLPFNAKRYFLVYGVPTQETRGEHAHKRCHQFLICVSGSVRVLADDGTRRIDVELNSPSQGIHLPPMIWGTQYKYSKDAVLLVFASESYDTDEYIRDYSDFKSLANAAR”, which protein production is on record?
Answer: failed

Question: For “MSHIQRETSCSRPRLNSNLDADLYGYRWARDNVGQSGATIYRLYGKPNAPELFLKHGKGSVANDVTDEMVRLNWLTAFMPLPTIKHFIRTPDDAWLLTTAIPGKTAFQVLEEYPDSGENIVDALAVFLRRLHSIPVCNCPFNSDRVFRLAQAQSRMNNGLVDASDFDDERNGWPVEQVWKEMHKLLPFSPDSVVTHGDFSLDNLIFDEGKLIGCIDVGRVGIADRYQDLAILWNCLGEFSPSLQKRLFQKYGIDNPDMNKLQFHLMLDEFF”, which protein production is on record?
Answer: not failed

Question: For “MSHRSPLRRLYPISAGGTAMRRSFAIGLTVLFLGNGAVMLAAPYPWYLAVPGVVLTGPFNDHFVRDVGAAYLACGVATALGAWNLRRHAGAVVVAATFQGLHAMIHLVTPFCGAGAPWLLLARDFPGVFLPTAATIWLAIAAFQPSEGEQK”, which protein production is on record?
Answer: failed

Question: For “MSHRSPSVTPAVSVLIPAWNAVRHLPAALDGLLSQTFQDWEAVVVDDGSQDETPALLAAYAARDARIRPLHVEHGGIVHALNHGLLHVRGRHVARMDADDTCHPERLALQCHALDNAPHLGLVASRVTFGGDAAQCGGFVRYVDWTNSLLCHEDIALGRFRESPLVHPSVMFRRELIDRFGPYANGPFPEDYELWLRWLEAGVRMEKLPEHLLVWNDPPGRLTRTHDNYAEAGFVALRTRYLARWLCAHNPQHPDVWVIGAGKASRRRARPLCEHGIRIRAWVDIDPHKIGNIVEGLPVVGREAMPAPGQGFMLAFLAGHGAAEELELFLHGAGYLPGQDYLLASLEHHHHHH”, which protein production is on record?
Answer: not failed

Question: Which protein production does the source give for “MSHTKIMSTDQLETQITELDNLPEHREIVTFMRRSAPLNTSQRSALEQYQDLILEYPVGDLRQHFEHPEHPLTVEIGFGMGRSLVLMAKAHPERNFVGIEVHVPGIAQCVYEAGMAGLKNLRVLDADAIQVLREMPDNSINCVQLYFPDPWQKKRHFKRRFVIHERMQLVEQKLELGGTFHAATDWEPYAEWMLDVLDNRPALENLAGKGNSYPRPEWRPQTKFERRGIESGHKINDFIFKKIGS” here?
Answer: failed

Question: For “MSIDLKKRKVEEDVRSRGKNSKIFSPFRIIGNVSNGVPFATGTLGSTFYIVTCVGKTFQIYDANTLHLLFVSEKETPSSIVALSAHFHYVYAAYENKVGIYKRGIEEHLLELETDANVEHLCIFGDYLCASTDDNSIFIYKKSDPQDKYPSEFYTKLTVTEIQGGEIVSLQHLATYLNKLTVVTKSNVLLFNVRTGKLVFTSNEFPDQITTAEPAPVLDIIALGTVTGEVIMFNMRKGKRIRTIKIPQSRISSLSFRTDGSSHLSVGTSSGDLIFYDLDRRSRIHVLKNIHRESYGGVTQATFLNGQPIIVTSGGDNSLKEYVFDPSLSQGSGDVVVQPPRYLRSRGGHSQPPSYIAFADSQSHFMLSASKDRSLWSFSLRKDAQSQEMSQRLHKKQDGGRVGGSTIKSKFPEIVALAIENARIGEWENIITAHKDEKFARTWDMRNKRVGRWTFDTTDDGFVKSVAMSQCGNFGFIGSSNGSITIYNMQSGILRKKYKLHKRAVTGISLDGMNRKMVSCGLDGIVGFYDFNKSTLLGKLKLDAPITAMVYHRSSDLFALALDDLSIVVIDAVTQRVVRQLWGHSNRITAFDFSPEGRWIVSASLDSTIRTWDLPTGGCIDGIIVDNVATNVKFSPNGDLLATTHVTGNGICIWTNRAQFKTVSTRTIDESEFARMALPSTSVRGNDSMLSGALESNGGEDLNDIDFNTYTSLEQIDKELLTLSIGPRSKMNTLLHLDVIRKRSKPKEAPKKSEKLPFFLQLSGEKVGDEASVREGIAHETPEEIHRRDQEAQKKLDAEEQMNKFKVTGRLGFESHFTKQLREGSQSKDYSSLLATLINFSPAAVDLEIRSLNSFEPFDEIVWFIDALTQGLKSNKNFELYETFMSLLFKAHGDVIHANNKNQDIASALQNWEDVHKKEDRLDDLVKFCMGVAAFVTTA”, which protein production is on record?
Answer: failed

Question: With “MSIEIRKLSIEDLETLIEVARESWKWTYAGIYSEEYIESWIREKYSKEKLLNEIVRSQSNLDILFLGAFADSTLIGFIELKIIANKAELLRLYLKPEYTHKKIGKTLLLEAEKIMKKKGILECRLYVHRQNSVGFSFYYKNGFKVEDTDGSDFIMEKKY” as the sequence, how does the protein production read?
Answer: not failed

Question: Which protein production does the source give for “MSIENLSSNKSFGGWHKQYSHVSNTLNCAMRFAIYLPPQASTGAKVPVLYWLSGLTCSDENFMQKAGAQRLAAELGIAIVAPDTSPRGEGVADDEGYDLGQGAGFYVNATQAPWNRHYQMYDYVVNELPELIESMFPVSDKRAIAGHSMGGHGALTIALRNPERYQSVSAFSPINNPVNCPWGQKAFTAYLGKDTDTWREYDASLLMRAAKQYVPALVDQGEADNFLAEQLKPEVLEAAASSNNYPLELRSHEGYDHSYYFIASFIEDHLRFHSNYLNA” here?
Answer: not failed

Question: Which protein production does the source give for “MSIEPVFILVRPQMGENIGAAARAMLNFGLGRLRIVDPRDGWPNPKAVAMASGAGRLLDHAGLFPTVAEAIRDCDYVFATTARGRELTKPVMTPERAMAHGRALTGEGRRVGILFGPERTGLENEDVALANAIVTVPVNPEFFSLNLAQCVLLLAYEWRRQHDETPPEVIDMARVDFASGLEVEKLGDHFEEKLEAAGFFFPPEKAPGMKLNLRNMWARLPLTRADVQTLHGMLRQIAWKLKQ” here?
Answer: not failed

Question: With “MSIEVIAVRLTKGMDLKLSLAKLVAEHDIKAGSIASCVGCISDLNLRLAGAESTLTKREPFEIVSVMGTLTPEHQHVHISVSDREGRVWGGHLLEGTVIDTTAELIIHSYSELEFTRAMDDSTGYTELQVNPSKLEHHHHHH” as the sequence, how does the protein production read?
Answer: not failed

Question: With “MSIEYKSEAAAVRRFPGSIVVMGVSGSGKSSVGEAIAEACGYPFIEGDALHPPENIRKMSEGIPLTDDDRWPWLAAIGERLASREPVVVSCSALKRSYRDKLRESAPGGLAFVFLHGSESVLAERMHHRTGHFMPSSLLQTQLETLEDPRGEVRTVAVDVAQPLAEIVREALAGLARL” as the sequence, how does the protein production read?
Answer: not failed

Question: Which protein production does the source give for “MSIKILSESEIKQVANSYQAPAVLFANPKNLYQRRAKRLRDLAQNHPLSDYLLFAADIVESQLSTLEKNPLPPQQLEQLNTIEPLNAKTFKRNSIWREYLTEILDEIKPKANEQIAATIEFLEKASSAELEEMANKLLAQEFNLVSSDKAVFIWAALSLYWLQAAQQIPHNSQVENAENLHHCPVCGSLPVASMVQIGTSQGLRYLHCNLCESEWNLVRAQCTNCNSHDKLEMWSLNEELALVRAETCGSCESYLKMMFQEKDPYVEPVADDLASIFLDIEMEEKGFARSGLNPFIFPAEEA” here?
Answer: failed

Source: a protein production outcome set (Wang et al. 2014)
